# Experimental data taken from PMC9482650, “Quantitative fragmentomics allow affinity mapping of interactomes” (Nature Communications, 2022).
# Positions count from the first letter of the chain named.
# T1: ARHGEF11, O15085
# T1 sequence (O15085 42-136, limits assumed, looked up): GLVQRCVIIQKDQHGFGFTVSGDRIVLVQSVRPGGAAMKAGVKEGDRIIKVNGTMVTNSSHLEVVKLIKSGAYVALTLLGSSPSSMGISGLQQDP
# T2: CARD11, Q9BXL7
# T2 sequence (Q9BXL7 662-765, limits assumed, looked up): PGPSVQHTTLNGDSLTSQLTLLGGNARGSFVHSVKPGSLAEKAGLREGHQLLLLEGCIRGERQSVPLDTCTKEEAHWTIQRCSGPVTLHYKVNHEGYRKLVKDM
# T3: DLG3_2, Q92796
# T3 sequence (Q92796 221-321, limits assumed, looked up): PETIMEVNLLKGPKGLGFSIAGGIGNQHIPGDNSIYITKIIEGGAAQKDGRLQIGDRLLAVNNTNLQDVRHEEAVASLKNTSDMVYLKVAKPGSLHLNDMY
# T4: GRIP1_5, Q9Y3R0
# T4 sequence (Q9Y3R0 568-668, limits assumed, looked up): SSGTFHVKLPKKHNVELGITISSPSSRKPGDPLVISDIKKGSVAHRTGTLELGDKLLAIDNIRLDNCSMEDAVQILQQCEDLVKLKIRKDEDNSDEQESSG
# T5: LIN7A, O14910
# T5 sequence (O14910 103-200, limits assumed, looked up): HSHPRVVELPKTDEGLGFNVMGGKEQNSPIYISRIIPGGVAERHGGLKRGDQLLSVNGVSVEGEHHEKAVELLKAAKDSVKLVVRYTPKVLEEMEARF
# T6: LIN7B, Q9HAP6
# T6 sequence (Q9HAP6 88-185, limits assumed, looked up): T5 sequence (O14910 103-200, limits assumed, looked up) with S2A, V20I, I35V, E42D, H65Q, K77Q, D78G, K89R
# T7: LIN7C, Q9NUP9
# T7 sequence (Q9NUP9 88-185, limits assumed, looked up): T5 sequence (O14910 103-200, limits assumed, looked up) with D13E, V20I, V40I, E42D, K77Q, D78G, S79K, A96S
# T8: NHERF3_4, Q5T2W1
# T8 sequence (Q5T2W1 373-468, limits assumed, looked up): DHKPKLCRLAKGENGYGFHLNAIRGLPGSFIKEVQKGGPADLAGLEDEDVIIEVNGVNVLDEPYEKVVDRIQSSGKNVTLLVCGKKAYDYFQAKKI
# T9: PARD3B_1, Q8TEW8
# T9 sequence (Q8TEW8 196-299, limits assumed, looked up): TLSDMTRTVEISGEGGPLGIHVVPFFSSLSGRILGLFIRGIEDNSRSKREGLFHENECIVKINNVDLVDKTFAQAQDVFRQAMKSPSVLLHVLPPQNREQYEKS
# T10: PTPN13_1, Q12923
# T10 sequence (Q12923 1088-1188, limits assumed, looked up): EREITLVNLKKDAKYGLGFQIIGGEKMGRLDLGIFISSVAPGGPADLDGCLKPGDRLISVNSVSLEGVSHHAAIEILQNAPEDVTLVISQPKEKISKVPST
# T11: RHPN1, Q8TCX5
# T11 sequence (Q8TCX5 508-602, limits assumed, looked up): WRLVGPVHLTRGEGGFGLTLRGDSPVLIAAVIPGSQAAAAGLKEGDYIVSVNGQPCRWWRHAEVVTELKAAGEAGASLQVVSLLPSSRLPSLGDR
# T12: SNTG2, Q9NY99
# T12 sequence (Q9NY99 68-166, limits assumed, looked up): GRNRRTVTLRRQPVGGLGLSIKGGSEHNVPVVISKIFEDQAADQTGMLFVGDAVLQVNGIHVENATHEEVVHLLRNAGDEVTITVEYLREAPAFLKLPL
# T13: TIAM2, Q8IVF5
# T13 sequence (Q8IVF5 885-986, limits assumed, looked up): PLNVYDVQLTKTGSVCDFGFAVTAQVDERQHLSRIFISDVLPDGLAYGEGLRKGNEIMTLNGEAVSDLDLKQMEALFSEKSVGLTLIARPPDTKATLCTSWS
# Biological target: T1, ARHGEF11, O15085
# Experiment: holdup assay
# Set-up: key: below the threshold = too weak to quantify, mostly under pKd 3.1 to 4
# Conditions: plain residues with an end cap or a label only (N-terminal biotin on a linker: ttds)
row,Binder,pKd
1,"GQDSREETQL [KCNT2, Q6UVM3]",4.44
2,"PKTPPTDTSV [KIR3DL3, Q8N743]",below the threshold

# Biological target: T2, CARD11, Q9BXL7
# Experiment: holdup assay
# Set-up: key: below the threshold = too weak to quantify, mostly under pKd 3.1 to 4
# Conditions: plain residues with an end cap or a label only (N-terminal biotin on a linker: ttds)
row,Binder,pKd
1,"GQDSREETQL [KCNT2, Q6UVM3]",below the threshold
2,"PKTPPTDTSV [KIR3DL3, Q8N743]",below the threshold

# Biological target: T3, DLG3_2, Q92796
# Experiment: holdup assay
# Set-up: key: below the threshold = too weak to quantify, mostly under pKd 3.1 to 4
# Conditions: plain residues with an end cap or a label only (N-terminal biotin on a linker: ttds)
row,Binder,pKd
1,"GQDSREETQL [KCNT2, Q6UVM3]",4
2,"PKTPPTDTSV [KIR3DL3, Q8N743]",4.14

# Biological target: GOPC, Q9HD26
# Experiment: holdup assay
# Set-up: key: below the threshold = too weak to quantify, mostly under pKd 3.1 to 4
# Conditions: plain residues with an end cap or a label only (N-terminal biotin on a linker: ttds)
row,Binder,pKd
1,"GQDSREETQL [KCNT2, Q6UVM3]",4.01
2,"PKTPPTDTSV [KIR3DL3, Q8N743]",3.5

# Biological target: GRID2IP_2, A4D2P6
# Experiment: holdup assay
# Set-up: key: below the threshold = too weak to quantify, mostly under pKd 3.1 to 4
# Conditions: plain residues with an end cap or a label only (N-terminal biotin on a linker: ttds)
# Chain of GRID2IP_2, A4D2P6 (A4D2P6 272-370): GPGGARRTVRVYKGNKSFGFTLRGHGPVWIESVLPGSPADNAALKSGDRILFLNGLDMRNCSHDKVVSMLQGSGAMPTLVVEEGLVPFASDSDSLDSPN
row,Binder,pKd
1,"GQDSREETQL [KCNT2, Q6UVM3]",4.52
2,"PKTPPTDTSV [KIR3DL3, Q8N743]",below the threshold

# Biological target: T4, GRIP1_5, Q9Y3R0
# Experiment: holdup assay
# Set-up: key: below the threshold = too weak to quantify, mostly under pKd 3.1 to 4
# Conditions: plain residues with an end cap or a label only (N-terminal biotin on a linker: ttds)
row,Binder,pKd
1,"GQDSREETQL [KCNT2, Q6UVM3]",below the threshold
2,"PKTPPTDTSV [KIR3DL3, Q8N743]",below the threshold

# Biological target: HTRA1, Q92743
# Experiment: holdup assay
# Set-up: key: below the threshold = too weak to quantify, mostly under pKd 3.1 to 4
# Conditions: plain residues with an end cap or a label only (N-terminal biotin on a linker: ttds)
# Chain of HTRA1, Q92743 (Q92743 360-477): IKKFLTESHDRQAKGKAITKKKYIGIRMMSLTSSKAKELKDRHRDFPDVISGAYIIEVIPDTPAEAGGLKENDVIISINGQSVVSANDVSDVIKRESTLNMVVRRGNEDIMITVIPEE
row,Binder,pKd
1,"GQDSREETQL [KCNT2, Q6UVM3]",below the threshold
2,"PKTPPTDTSV [KIR3DL3, Q8N743]",below the threshold

# Biological target: IL16_4, Q14005
# Experiment: holdup assay
# Set-up: key: below the threshold = too weak to quantify, mostly under pKd 3.1 to 4
# Conditions: plain residues with an end cap or a label only (N-terminal biotin on a linker: ttds)
# Chain of IL16_4, Q14005 (Q14005 1229-1329): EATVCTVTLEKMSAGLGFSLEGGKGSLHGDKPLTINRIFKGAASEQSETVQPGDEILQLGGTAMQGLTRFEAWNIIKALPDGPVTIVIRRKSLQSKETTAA
row,Binder,pKd
1,"GQDSREETQL [KCNT2, Q6UVM3]",below the threshold
2,"PKTPPTDTSV [KIR3DL3, Q8N743]",below the threshold

# Biological target: Inadl_6, Q8NI35
# Experiment: holdup assay
# Set-up: key: below the threshold = too weak to quantify, mostly under pKd 3.1 to 4
# Conditions: plain residues with an end cap or a label only (N-terminal biotin on a linker: ttds)
# Chain of Inadl_6, Q8NI35 (Q8NI35 1058-1167): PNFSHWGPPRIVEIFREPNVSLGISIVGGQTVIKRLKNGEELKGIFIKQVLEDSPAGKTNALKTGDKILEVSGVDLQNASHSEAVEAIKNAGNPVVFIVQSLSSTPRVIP
row,Binder,pKd
1,"GQDSREETQL [KCNT2, Q6UVM3]",4.19
2,"PKTPPTDTSV [KIR3DL3, Q8N743]",below the threshold

# Biological target: T5, LIN7A, O14910
# Experiment: holdup assay
# Set-up: key: below the threshold = too weak to quantify, mostly under pKd 3.1 to 4
# Conditions: plain residues with an end cap or a label only (N-terminal biotin on a linker: ttds)
row,Binder,pKd
1,"GQDSREETQL [KCNT2, Q6UVM3]",below the threshold
2,"PKTPPTDTSV [KIR3DL3, Q8N743]",below the threshold

# Biological target: T6, LIN7B, Q9HAP6
# Experiment: holdup assay
# Set-up: key: below the threshold = too weak to quantify, mostly under pKd 3.1 to 4
# Conditions: plain residues with an end cap or a label only (N-terminal biotin on a linker: ttds)
row,Binder,pKd
1,"GQDSREETQL [KCNT2, Q6UVM3]",3.66
2,"PKTPPTDTSV [KIR3DL3, Q8N743]",below the threshold

# Biological target: T7, LIN7C, Q9NUP9
# Experiment: holdup assay
# Set-up: key: below the threshold = too weak to quantify, mostly under pKd 3.1 to 4
# Conditions: plain residues with an end cap or a label only (N-terminal biotin on a linker: ttds)
row,Binder,pKd
1,"GQDSREETQL [KCNT2, Q6UVM3]",below the threshold
2,"PKTPPTDTSV [KIR3DL3, Q8N743]",3.51

# Biological target: MAGI2_2, Q86UL8
# Experiment: holdup assay
# Set-up: key: below the threshold = too weak to quantify, mostly under pKd 3.1 to 4
# Conditions: plain residues with an end cap or a label only (N-terminal biotin on a linker: ttds)
# Chain of MAGI2_2, Q86UL8 (Q86UL8 410-522): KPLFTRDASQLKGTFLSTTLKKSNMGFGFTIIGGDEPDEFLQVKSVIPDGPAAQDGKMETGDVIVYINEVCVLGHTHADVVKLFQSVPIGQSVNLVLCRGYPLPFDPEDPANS
row,Binder,pKd
1,"GQDSREETQL [KCNT2, Q6UVM3]",below the threshold
2,"PKTPPTDTSV [KIR3DL3, Q8N743]",below the threshold

# Biological target: MAGI2_4, Q86UL8
# Experiment: holdup assay
# Set-up: key: below the threshold = too weak to quantify, mostly under pKd 3.1 to 4
# Conditions: plain residues with an end cap or a label only (N-terminal biotin on a linker: ttds)
# Chain of MAGI2_4, Q86UL8 (Q86UL8 772-865): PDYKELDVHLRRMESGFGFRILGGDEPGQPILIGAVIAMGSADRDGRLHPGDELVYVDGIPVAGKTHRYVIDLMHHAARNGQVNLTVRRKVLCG
row,Binder,pKd
1,"GQDSREETQL [KCNT2, Q6UVM3]",below the threshold
2,"PKTPPTDTSV [KIR3DL3, Q8N743]",below the threshold

# Biological target: MAGI2_6, Q86UL8
# Experiment: holdup assay
# Set-up: key: below the threshold = too weak to quantify, mostly under pKd 3.1 to 4
# Conditions: plain residues with an end cap or a label only (N-terminal biotin on a linker: ttds)
# Chain of MAGI2_6, Q86UL8 (Q86UL8 1141-1229): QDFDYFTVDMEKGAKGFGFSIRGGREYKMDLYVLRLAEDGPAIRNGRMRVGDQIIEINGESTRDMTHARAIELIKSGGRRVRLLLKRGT
row,Binder,pKd
1,"GQDSREETQL [KCNT2, Q6UVM3]",below the threshold
2,"PKTPPTDTSV [KIR3DL3, Q8N743]",3.97

# Biological target: MAGI3_2, Q5TCQ9
# Experiment: holdup assay
# Set-up: key: below the threshold = too weak to quantify, mostly under pKd 3.1 to 4
# Conditions: plain residues with an end cap or a label only (N-terminal biotin on a linker: ttds)
# Chain of MAGI3_2, Q5TCQ9 (Q5TCQ9 398-503): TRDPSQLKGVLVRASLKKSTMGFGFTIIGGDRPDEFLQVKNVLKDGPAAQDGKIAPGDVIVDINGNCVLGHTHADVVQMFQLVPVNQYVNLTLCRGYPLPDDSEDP
row,Binder,pKd
1,"GQDSREETQL [KCNT2, Q6UVM3]",3.91
2,"PKTPPTDTSV [KIR3DL3, Q8N743]",3.71

# Biological target: T8, NHERF3_4, Q5T2W1
# Experiment: holdup assay
# Set-up: key: below the threshold = too weak to quantify, mostly under pKd 3.1 to 4
# Conditions: plain residues with an end cap or a label only (N-terminal biotin on a linker: ttds)
row,Binder,pKd
1,"GQDSREETQL [KCNT2, Q6UVM3]",below the threshold
2,"PKTPPTDTSV [KIR3DL3, Q8N743]",below the threshold

# Biological target: T9, PARD3B_1, Q8TEW8
# Experiment: holdup assay
# Set-up: key: below the threshold = too weak to quantify, mostly under pKd 3.1 to 4
# Conditions: plain residues with an end cap or a label only (N-terminal biotin on a linker: ttds)
row,Binder,pKd
1,"GQDSREETQL [KCNT2, Q6UVM3]",below the threshold
2,"PKTPPTDTSV [KIR3DL3, Q8N743]",below the threshold

# Biological target: T10, PTPN13_1, Q12923
# Experiment: holdup assay
# Set-up: key: below the threshold = too weak to quantify, mostly under pKd 3.1 to 4
# Conditions: plain residues with an end cap or a label only (N-terminal biotin on a linker: ttds)
row,Binder,pKd
1,"GQDSREETQL [KCNT2, Q6UVM3]",below the threshold
2,"PKTPPTDTSV [KIR3DL3, Q8N743]",below the threshold

# Biological target: T11, RHPN1, Q8TCX5
# Experiment: holdup assay
# Set-up: key: below the threshold = too weak to quantify, mostly under pKd 3.1 to 4
# Conditions: plain residues with an end cap or a label only (N-terminal biotin on a linker: ttds)
row,Binder,pKd
1,"GQDSREETQL [KCNT2, Q6UVM3]",5
2,"PKTPPTDTSV [KIR3DL3, Q8N743]",below the threshold

# Biological target: SCRIB_1, Q14160
# Experiment: holdup assay
# Set-up: key: below the threshold = too weak to quantify, mostly under pKd 3.1 to 4
# Conditions: plain residues with an end cap or a label only (N-terminal biotin on a linker: ttds)
# Chain of SCRIB_1, Q14160 (Q14160 718-814): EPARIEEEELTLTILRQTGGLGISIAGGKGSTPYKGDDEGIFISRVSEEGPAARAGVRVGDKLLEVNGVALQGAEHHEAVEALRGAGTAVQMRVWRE
row,Binder,pKd
1,"GQDSREETQL [KCNT2, Q6UVM3]",4.57
2,"PKTPPTDTSV [KIR3DL3, Q8N743]",3.69

# Biological target: T12, SNTG2, Q9NY99
# Experiment: holdup assay
# Set-up: key: below the threshold = too weak to quantify, mostly under pKd 3.1 to 4
# Conditions: plain residues with an end cap or a label only (N-terminal biotin on a linker: ttds)
row,Binder,pKd
1,"GQDSREETQL [KCNT2, Q6UVM3]",4.39
2,"PKTPPTDTSV [KIR3DL3, Q8N743]",3.73

# Biological target: T13, TIAM2, Q8IVF5
# Experiment: holdup assay
# Set-up: key: below the threshold = too weak to quantify, mostly under pKd 3.1 to 4
# Conditions: plain residues with an end cap or a label only (N-terminal biotin on a linker: ttds)
row,Binder,pKd
1,"GQDSREETQL [KCNT2, Q6UVM3]",below the threshold
2,"PKTPPTDTSV [KIR3DL3, Q8N743]",below the threshold

# Biological target: TJP2_1, Q9UDY2
# Experiment: holdup assay
# Set-up: key: below the threshold = too weak to quantify, mostly under pKd 3.1 to 4
# Conditions: plain residues with an end cap or a label only (N-terminal biotin on a linker: ttds)
# Chain of TJP2_1, Q9UDY2 (Q9UDY2 24-128): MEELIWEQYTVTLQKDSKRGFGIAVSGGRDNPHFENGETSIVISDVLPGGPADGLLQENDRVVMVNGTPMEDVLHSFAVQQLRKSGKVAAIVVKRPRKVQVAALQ
row,Binder,pKd
1,"GQDSREETQL [KCNT2, Q6UVM3]",below the threshold
2,"PKTPPTDTSV [KIR3DL3, Q8N743]",below the threshold
